Experiments:
[1] = system: hPSC-derived neural progenitors; experiment: Differentiation of hPSC-derived neural progenitors into neurons (qPCR markers); format: cell-based, human; conditions: for neural progenitor marker SOX2 expression / neuronal markers (MAPT, SNAP25, DCX, VGLUT2, TBR1) expression: soluble protein 10, 100, 1,000 nM, day 8-14, qPCR
Experimental: Neural differentiation of hPSCs was performed in two separate phases over 14 days. In the first phase, to differentiate hPSCs into neural progenitors for 7 days, a modification of a previously-reported method was used. However, in this study, differentiation conducted in Chemically Defined Media 2 (CDM2) media, whose composition has been described previously: 50% IMDM+GlutaMAX (Thermo Fisher)+50% F12+GlutaMAX (Thermo Fisher)+1 mg/mL polyvinyl alcohol (Sigma)+1% v/v chemically defined lipid concentrate (Thermo Fisher)+450 μM 1-thioglycerol (Sigma)+0.7 μg/mL recombinant human insulin (Sigma)+15 μg/mL human transferrin (Sigma)+1% v/v penicillin/streptomycin (Thermo Fisher). To create CDM2, polyvinyl alcohol was brought into suspension by gentle warming and magnetic stirring, and the media was sterilely filtered (through a 0.22 μm filter) prior to use. Throughout the first 7 days, differentiation media was changed every 24 hours. The second phase was to differentiate hPSC-derived neural progenitors into neurons for 7 days, from the day 8-14 interval. Neuronal differentiation media was modified from a previously-reported method^9. From day 8-14, cells were differentiated in BDNF (20 ng/ml, PeproTech), GDNF (20 ng/ml, PeproTech), Forskolin (10 μM, Tocris), 2-Phospho-L-ascorbic acid (0.2 mM, Sigma-Aldrich), with the basal media compositions varying depending on the day of differentiation. On day 8, 25% Neurobasal media+75% CDM2 media was used; on day 9, 50% Neurobasal media+50% CDM2 media was used; on day 10, 75% Neurobasal media+25% CDM2 media was used; on days 11-14, 100% Neurobasal media was used. The composition of Neurobasal media was: Neurobasal basal media (Thermo Fisher)+1% v/v N2 (Thermo Fisher)+2% v/v B27 (Thermo Fisher)+1% v/v penicillin/streptomycin (Thermo Fisher), which was filtered through a sterilizing 0.22 μM filter before use. In summary, starting on day 8 of differentiation, Neurobasal media was added in an increasing ¼th increment on a daily basis. However, to emphasize, throughout the entire day 8-14 interval, cells were exposed to the same concentration of neuronal differentiation signals (BDNF, GDNF, Forskolin and 2-Phospho-L-ascorbic acid), although different basal medias were used on different days.
To test the effect of Notch signaling on neuronal differentiation, starting on day 8, hPSC-derived neural progenitors were treated with the aforementioned neuronal differentiation signals in the presence or absence of soluble Delta^MAX (0-1,000 nM), soluble wild-type DLL4 (0-1,000 nM), or DAPT (10,000 nM, Tocris).
After differentiation of hPSCs into neurons as described above, gene expression was analyzed using RNA extraction, reverse transcription, and quantitative PCR (qPCR) as previously described. First, cells were lysed with RNeasy Lysis Buffer (Qiagen) and stored at −20° C. Cell lysates were then thawed, and RNA was extracted using the RNeasy Mini Plus Kit (Qiagen) as per the manufacturer's instructions and dissolved in H2O. Next, 300 ng of RNA was reverse transcribed into complementary DNA (cDNA) using the High-Capacity cDNA Reverse Transcription Kit (Applied Biosystems) according to the manufacturer's protocol. Total cDNA was diluted 1:20 in H2O and qPCR was performed with the SensiFAST SYBR Lo-ROX Kit (Bioline) using 10 μL qPCR reactions per well in a 384-well plate. Each individual reaction contained 5.0 μL 2× SensiFAST SYBR qPCR Master Mix+4.6 μL cDNA+0.4 μL of 10 μM primer stock (5 μM forward+5 μM reverse primers). […]

[2] = Thermal denaturation by differential scanning fluorimetry (DSF); format: physicochemical; conditions: for melting temperature (Tm): N-EGF5, 5 μM in HBS
Experimental: WT DLL4 and Delta^MAX (N-EGF5) were diluted at 5 μM in 20 μL of HBS buffer, and then combined with 10 μM (5×) SYPRO Orange (ThermoFisher Scientific) prepared in 100% DMSO (final DMSO concentration was 0.1%). This mix was equilibrated at room temperature for 30 min. Proteins were analyzed in a 96-well microtiter plate using a StepOnePlus RT-PCR system (Applied Biosystems) applying a continuous heating gradient from 25 to 99° C. with a step of 1% of temperature/min. Data was normalized and represented as the mean of three independent technical replicates. Similar Tm values were obtained for the replica measurements.

[3] = system: Notch1; experiment: Notch activation with ligand-oriented coupling on streptavidin plates (CHO-K1 N1-Gal4 reporter); format: cell-based; conditions: for EC50: C-terminally biotinylated, streptavidin-coated plates (oriented coupling), 24 hours; for maximum level of Notch1 activation, oriented coupling versus non-specific adsorption: FIG. 3B
Notch1, sequence (P46531 19-1664 limits assumed): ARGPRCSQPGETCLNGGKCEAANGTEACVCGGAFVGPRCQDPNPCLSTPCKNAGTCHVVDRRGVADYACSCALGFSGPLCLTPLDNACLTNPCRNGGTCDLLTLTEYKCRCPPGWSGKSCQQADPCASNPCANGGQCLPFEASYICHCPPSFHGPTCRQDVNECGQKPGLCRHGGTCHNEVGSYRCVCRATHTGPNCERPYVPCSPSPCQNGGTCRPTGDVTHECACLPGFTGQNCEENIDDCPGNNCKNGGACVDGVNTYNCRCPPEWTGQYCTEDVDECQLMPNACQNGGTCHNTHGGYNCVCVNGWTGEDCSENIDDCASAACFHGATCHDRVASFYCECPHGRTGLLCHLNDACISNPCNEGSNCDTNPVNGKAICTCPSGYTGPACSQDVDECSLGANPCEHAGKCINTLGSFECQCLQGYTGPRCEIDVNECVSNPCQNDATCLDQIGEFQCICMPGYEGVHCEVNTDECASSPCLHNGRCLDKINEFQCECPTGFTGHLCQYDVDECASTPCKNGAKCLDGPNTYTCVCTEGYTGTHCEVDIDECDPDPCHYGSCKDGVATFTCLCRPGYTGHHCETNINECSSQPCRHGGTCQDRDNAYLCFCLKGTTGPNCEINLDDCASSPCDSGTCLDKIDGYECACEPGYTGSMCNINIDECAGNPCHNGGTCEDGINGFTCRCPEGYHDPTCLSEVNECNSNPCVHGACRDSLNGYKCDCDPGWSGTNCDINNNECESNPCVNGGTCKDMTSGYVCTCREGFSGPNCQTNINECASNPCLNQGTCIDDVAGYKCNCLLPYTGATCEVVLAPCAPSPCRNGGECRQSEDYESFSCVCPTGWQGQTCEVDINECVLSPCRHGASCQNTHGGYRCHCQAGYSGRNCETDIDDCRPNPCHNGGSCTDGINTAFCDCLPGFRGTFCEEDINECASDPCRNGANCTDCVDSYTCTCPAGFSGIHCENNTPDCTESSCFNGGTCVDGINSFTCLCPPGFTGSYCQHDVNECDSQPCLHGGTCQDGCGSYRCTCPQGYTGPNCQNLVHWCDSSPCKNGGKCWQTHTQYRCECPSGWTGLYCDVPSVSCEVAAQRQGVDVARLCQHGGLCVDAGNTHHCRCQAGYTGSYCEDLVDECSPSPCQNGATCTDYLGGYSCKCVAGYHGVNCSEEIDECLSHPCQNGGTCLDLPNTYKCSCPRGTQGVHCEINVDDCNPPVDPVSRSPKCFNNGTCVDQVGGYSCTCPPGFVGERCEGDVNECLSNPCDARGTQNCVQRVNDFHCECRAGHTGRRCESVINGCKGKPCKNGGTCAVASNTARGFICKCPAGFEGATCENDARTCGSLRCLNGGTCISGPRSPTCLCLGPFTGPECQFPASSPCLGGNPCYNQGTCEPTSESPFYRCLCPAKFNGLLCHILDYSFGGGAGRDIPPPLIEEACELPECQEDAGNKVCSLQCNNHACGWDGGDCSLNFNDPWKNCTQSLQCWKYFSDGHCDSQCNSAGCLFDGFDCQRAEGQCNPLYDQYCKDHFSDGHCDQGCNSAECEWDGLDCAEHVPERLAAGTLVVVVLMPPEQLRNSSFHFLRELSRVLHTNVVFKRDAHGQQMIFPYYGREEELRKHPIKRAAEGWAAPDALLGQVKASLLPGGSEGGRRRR
Notch1, sequence (P46531 1665-1756 limits assumed): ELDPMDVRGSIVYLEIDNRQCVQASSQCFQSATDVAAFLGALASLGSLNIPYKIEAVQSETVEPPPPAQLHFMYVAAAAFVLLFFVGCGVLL
Experimental: For CHO-K1 N1-Gal4 reporters, on day one, tissue culture 96-well plates (Coastar) were pre-treated with 100 μL of streptavidin at 10 μg/mL (VWR) for 1 hour at 37° C., washed three times with 200 μL DPBS (Corning), and blocked with 100 μL BSA 2% (VWR) for 1 hour at 37° C. Excess BSA was removed by washing three times with 200 μL DPBS (Corning), and 100 μL of DPBS containing biotinylated DLL4 proteins were coupled to streptavidin for 1 hour at 37° C. (2-fold serial dilutions starting at 50 nM). Non-coupled DLL4 proteins were removed by washing three times with 200 μL DPBS. Next, Notch reporter cells in culture were detached with trypsin-EDTA 0.25% (Gibco), and 30,000 cells in α-MEM media (200 μL) were added into individual wells. Assay plates were incubated for 24 hours at 37° C., and 5% CO2. On day two, CHO-K1 N1-Gal4 cells were washed with 200 μL DPBS, detached with 30 μL of trypsin-EDTA 0.25%, and 200 μL of α-MEM media added. Cells were resuspended and Notch activation was measured as a function of fluorescence by flow cytometry (BD Accuri C6 plus). CHO-K1 N1-Gal4 cells and lacking-ligand wells were used as a negative control. The measurements represent the mean fluorescent intensity as percentage of Notch activation±s.d. of three biological replicates. Notch activation was reference-subtracted from a well coated with a non-related control protein (PA domain of RNF128).

| Molecule | neuronal differentiation compared with 10 μM of DAPT ([1]; 1 μM soluble protein) | neural progenitor marker SOX2 expression [1] | neuronal markers (MAPT, SNAP25, DCX, VGLUT2, TBR1) expression [1] | increase in Tm relative to WT DLL4 (ΔTm) [2] [°C] | melting temperature (Tm) [2] [°C] | EC50 [3] [nM] | maximum level of Notch1 activation, oriented coupling versus non-specific adsorption [3] |
| --- | --- | --- | --- | --- | --- | --- | --- |
| Delta^MAX: engineered human DLL4 consensus variant with 10 mutations combining DLL4.v1 and DLL4.v2 mutations; sequence matches SEQ ID NO: 4/10 (protein) SSVFQLQLQEFINERGVLASGRPCEPGCRTFFRVCLKHFQAVVSPGPCTFGTVSTPVLGTNSFAVRDDSSGGGRNPLQLPLNFTWPGTFSLIIEAWHAPGDDLRPEALPPDALISKFAIQGSLAVGQNWLLDEQTSTLTRLRYSYRVICSDNYYGDNCSRLCKKRNDYFGHYVCQPDGNPSCLPGWTGEYCQQPICLSGCHEQNGYCSKPAECLCRPGWQGRLCNECIPHPGCRHGTCSTPWQCLCDEGWGGLYCDQDLNYCTHHSPCKNGATCRNSGPRSYTCTCRPGYTGVDCELELSECDSNPCRNGGSCKDQEDGYHCLCPPGYYGLHCEHSTLSCADSPCFNGGSCRERNQGANYACECPPNFTGSNCE | comparable to, if not superior to | repressed | sharply increased | 11 | 58 | 1.7 | higher maximum level |
| WT DLL4: human wild-type Delta-like 4 (N-EGF5, residues 27-400), SEQ ID NO: 1 (protein) SGVFQLQLQEFINERGVLASGRPCEPGCRTFFRVCLKHFQAVVSPGPCTFGTVSTPVLGTNSFAVRDDSSGGGRNPLQLPFNFTWPGTFSLIIEAWHAPGDDLRPEALPPDALISKIAIQGSLAVGQNWLLDEQTSTLTRLRYSYRVICSDNYYGDNCSRLCKKRNDHFGHYVCQPDGNLSCLPGWTGEYCQQPICLSGCHEQNGYCSKPAECLCRPGWQGRLCNECIPHNGCRHGTCSTPWQCTCDEGWGGLFCDQDLNYCTHHSPCKNGATCSNSGQRSYTCTCRPGYTGVDCELELSECDSNPCRNGGSCKDQEDGYHCLCPPGYYGLHCEHSTLSCADSPCFNGGSCRERNQGANYACECPPNFTGSNCE | – | failed to upregulate neuronal markers or to repress neural progenitor markers | failed to upregulate neuronal markers | – | 47 | 16 | higher maximum level |

Source: patent US20260055369A1, “METHOD FOR GENERATING CELLS OF THE T CELL LINEAGE WITH ENGINEERING BROADLY REACTIVE HUMAN NOTCH LIGAND” (H. Lee Moffitt Cancer Center and Research Institute, Inc., priority 2022, published 2026)
